# Test results published in the supplement of paper PMC6757056.
# ± gives the standard deviation of the averaged measurements.
# B1: library; a variant is named by its letters at N, in order (parent)
# chain: GCUGUCACCGAGAAACUGUGAAGUAUAUCUUAAACCUGGGCACUUAAAAGAUAUAUGGAGUUAGUAGUGCAACCUGCUCGGUCUGAUGAGUCCNNNNNNGGACGAAACAGC
# Key:
# cyclic di-GMP [1] = variants of: B1; experiment: normalized RNA/DNA level without ligand (relative to sTRSVctl = 100) (log10 (% of sTRSVctl)); HEK293T; ligand: cyclic di-GMP (c-di-GMP-II aptamer); higher = less ribozyme self-cleavage, higher mRNA level; conditions: reporter: mCherry (pCS4076), ligand present: no
# Outline: (§1)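 RNA level was computed as RNA reads over DNA reads divided by a spiked-in non-cleaving sequence or by the top sequences, then scaled and log-transformed. Scaling was ×100 with log10, the top group was 25 sequences, and the threshold was ≥100 DNA reads. The reads came from HEK293T cells transfected at 4 µg per 6-well well with ribozyme switch library plasmids (mCherry, or eGFP in some ligand experiments). Total RNA was extracted with EDTA 72 h after transfection, with any ligand added 1 h before it.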
# cyclic di-GMP [2] = variants of: B1; experiment: normalized RNA/DNA level with ligand (relative to sTRSVctl = 100) (log10 (% of sTRSVctl)); HEK293T; ligand: cyclic di-GMP (c-di-GMP-II aptamer); ligand concentration (+) RNA-Seq: 1 mM; higher = less ribozyme self-cleavage, higher mRNA level; conditions: reporter: mCherry (pCS4076), ligand present: yes
# Outline: as §1
Variant,normalized RNA/DNA level without ligand (log10) (cyclic di-GMP [1]),normalized RNA/DNA level with ligand (log10) (cyclic di-GMP [2])
AGUCAA,1.48 ± 0.039,1.69 ± 0.1
AGUCAG,1.571 ± 0.011,1.73 ± 0.16
UGGGUU,1.717 ± 0.016,1.82 ± 0.16
UGGGUC,1.8 ± 0.026,1.93 ± 0.11
UGGGUA,1.61 ± 0.071,1.78 ± 0.029
UGGGUG,1.73 ± 0.04,1.86 ± 0.098
GGGUGC,1.749 ± 0.006,1.85 ± 0.093
CGGGCC,1.92 ± 0.02,1.95 ± 0.067
CGGGCA,1.81 ± 0.064,1.9 ± 0.13
CGGGCG,1.83 ± 0.066,1.94 ± 0.092
CGGGCU,1.84 ± 0.033,1.92 ± 0.14
AGGUGC,1.75 ± 0.037,1.82 ± 0.11
AGGUGU,1.66 ± 0.041,1.77 ± 0.06
AGGUGG,1.69 ± 0.031,1.78 ± 0.12
CGGUUU,1.6584 ± 0.0015,1.75 ± 0.1
CGGUUG,1.68 ± 0.14,1.812 ± 0.013
CGGUUC,1.55 ± 0.028,1.75 ± 0.069
GGGGAA,1.48 ± 0.1,1.54 ± 0.055
GGUACG,1.661 ± 0.0037,1.821 ± 0.013
GGUACU,1.71 ± 0.067,1.82 ± 0.16
GGUACC,1.82 ± 0.038,1.93 ± 0.12
GGUACA,1.52 ± 0.034,1.73 ± 0.051
GGGGUA,1.52 ± 0.018,1.62 ± 0.13
GGGGUC,1.654 ± 0.0072,1.79 ± 0.12

Variant,normalized RNA/DNA level without ligand (log10) (cyclic di-GMP [1]),normalized RNA/DNA level with ligand (log10) (cyclic di-GMP [2])
GGUCAC,1.754 ± 0.014,1.87 ± 0.091
GGUCAA,1.4 ± 0.095,1.64 ± 0.092
GGUCAU,1.56 ± 0.055,1.83 ± 0.081
CGUACG,1.777 ± 0.013,1.857 ± 0.017
CGUACC,1.74 ± 0.039,1.89 ± 0.09
AGGGAA,1.41 ± 0.11,1.53 ± 0.061
AGGGAC,1.55 ± 0.12,1.7 ± 0.16
AGGGAU,1.54 ± 0.084,1.74 ± 0.086
AGUCUA,1.55 ± 0.016,1.77 ± 0.12
AGUCUC,1.764 ± 0.0076,1.88 ± 0.085
AGUCUG,1.629 ± 0.012,1.76 ± 0.056
AGUCUU,1.726 ± 0.0047,1.84 ± 0.11
UGUAUG,1.75 ± 0.045,1.9 ± 0.13
UGUAUC,1.734 ± 0.0024,1.87 ± 0.11
UGUAUU,1.73 ± 0.016,1.9 ± 0.091
AGGCUG,1.774 ± 0.0035,1.87 ± 0.051
AGGCUC,1.78 ± 0.034,1.87 ± 0.087
AGGCUA,1.51 ± 0.084,1.65 ± 0.095
CGUCGU,1.78 ± 0.061,1.9 ± 0.13
CGUCGG,1.7 ± 0.039,1.81 ± 0.13
CGUCGC,1.76 ± 0.024,1.87 ± 0.16
GGUCGC,1.74 ± 0.034,1.87 ± 0.15
GGUCGU,1.66 ± 0.056,1.83 ± 0.036
UGGGAU,1.55 ± 0.12,1.75 ± 0.11

Variant,normalized RNA/DNA level without ligand (log10) (cyclic di-GMP [1]),normalized RNA/DNA level with ligand (log10) (cyclic di-GMP [2])
UGGGAC,1.697 ± 0.01,1.84 ± 0.078
UGGGAG,1.673 ± 0.012,1.79 ± 0.14
CGUCAG,1.79 ± 0.056,1.92 ± 0.11
CGUCAC,1.63 ± 0.065,1.78 ± 0.062
CGUCAU,1.46 ± 0.042,1.64 ± 0.13
CGGGAU,1.49 ± 0.05,1.64 ± 0.13
CGGGAC,1.669 ± 0.012,1.79 ± 0.085
GGGCUC,1.88 ± 0.051,1.98 ± 0.042
UGGUUA,1.67 ± 0.019,1.85 ± 0.042
UGGUUU,1.761 ± 0.011,1.88 ± 0.12
UGGUUC,1.7 ± 0.033,1.83 ± 0.12
UGGUUG,1.686 ± 0.011,1.83 ± 0.11
CGGUGG,1.66 ± 0.066,1.79 ± 0.1
CGGUGC,1.785 ± 0.007,1.9 ± 0.12
CGUAAC,1.557 ± 0.0076,1.72 ± 0.091
CGUAAG,1.77 ± 0.056,1.86 ± 0.12
UGUGGA,1.58 ± 0.067,1.76 ± 0.062
UGUGGU,1.667 ± 0.012,1.81 ± 0.065
UGUGGC,1.742 ± 0.0053,1.89 ± 0.082
CGUAUU,1.33 ± 0.083,1.57 ± 0.11
CGUAUG,1.73 ± 0.019,1.86 ± 0.13
CGUAUC,1.58 ± 0.045,1.76 ± 0.098
GGGCGC,1.84 ± 0.027,1.92 ± 0.091
CGUAGG,1.71 ± 0.033,1.82 ± 0.14

Variant,normalized RNA/DNA level without ligand (log10) (cyclic di-GMP [1]),normalized RNA/DNA level with ligand (log10) (cyclic di-GMP [2])
CGUAGU,1.69 ± 0.041,1.82 ± 0.13
CGUAGA,1.44 ± 0.016,1.64 ± 0.14
CGUAGC,1.73 ± 0.062,1.83 ± 0.055
AGUGGC,1.6 ± 0.079,1.79 ± 0.11
AGUGGU,1.56 ± 0.089,1.759 ± 0.014
AGUGGA,1.44 ± 0.11,1.62 ± 0.086
CGGCUG,1.74 ± 0.087,1.87 ± 0.12
CGGCUC,1.782 ± 0.0084,1.85 ± 0.085
CGUCUG,1.727 ± 0.015,1.83 ± 0.064
CGUGGG,1.62 ± 0.058,1.8 ± 0.073
CGUGGU,1.74 ± 0.021,1.87 ± 0.076
CGUGGC,1.748 ± 0.0072,1.85 ± 0.15
CGUGCC,1.75 ± 0.02,1.84 ± 0.093
CGUGCU,1.64 ± 0.05,1.81 ± 0.063
AGGUAC,1.67 ± 0.038,1.81 ± 0.077
AGGUAG,1.54 ± 0.034,1.66 ± 0.046
CGGCGU,1.726 ± 0.013,1.91 ± 0.16
CGGCGG,1.68 ± 0.059,1.81 ± 0.077
AGUCCU,1.77 ± 0.023,1.87 ± 0.086
AGUCCA,1.663 ± 0.0054,1.78 ± 0.049
AGUCCC,1.77 ± 0.042,1.87 ± 0.069
UGUCGA,1.76 ± 0.033,1.81 ± 0.14
UGUCGG,1.74 ± 0.027,1.86 ± 0.077
UGUCGC,1.76 ± 0.049,1.85 ± 0.15

Variant,normalized RNA/DNA level without ligand (log10) (cyclic di-GMP [1]),normalized RNA/DNA level with ligand (log10) (cyclic di-GMP [2])
UGUCGU,1.648 ± 0.0058,1.84 ± 0.12
CGGUCU,1.56 ± 0.064,1.72 ± 0.11
CGGUCG,1.78 ± 0.042,1.9 ± 0.13
AGGGGA,1.53 ± 0.1,1.59 ± 0.054
AGGGGU,1.57 ± 0.058,1.7 ± 0.13
AGGGGC,1.69 ± 0.1,1.83 ± 0.091
AGGGGG,1.72 ± 0.026,1.81 ± 0.075
UGGGCG,1.84 ± 0.035,1.92 ± 0.13
UGGGCC,1.94 ± 0.036,1.97 ± 0.081
UGGGCA,1.835 ± 0.0077,1.93 ± 0.08
UGGGCU,1.81 ± 0.042,1.89 ± 0.089
AGUACA,1.51 ± 0.038,1.67 ± 0.059
AGUACU,1.7515 ± 2.5e-05,1.85 ± 0.089
AGUACC,1.66 ± 0.018,1.86 ± 0.15
AGUACG,1.58 ± 0.046,1.74 ± 0.065
UGUCCG,1.856 ± 0.0053,1.95 ± 0.042
UGUCCA,1.8 ± 0.013,1.87 ± 0.068
UGUCCC,1.81 ± 0.072,1.88 ± 0.17
CGGGGG,1.62 ± 0.059,1.77 ± 0.026
CGGGGU,1.72 ± 0.0034,1.83 ± 0.13
